Measured values published in article PMC4914107 (Nucleic Acids Research, 2016).

Target: T1, RAD51 (purified) (UniProt Q06609 1-339)
T1 sequence (looked up): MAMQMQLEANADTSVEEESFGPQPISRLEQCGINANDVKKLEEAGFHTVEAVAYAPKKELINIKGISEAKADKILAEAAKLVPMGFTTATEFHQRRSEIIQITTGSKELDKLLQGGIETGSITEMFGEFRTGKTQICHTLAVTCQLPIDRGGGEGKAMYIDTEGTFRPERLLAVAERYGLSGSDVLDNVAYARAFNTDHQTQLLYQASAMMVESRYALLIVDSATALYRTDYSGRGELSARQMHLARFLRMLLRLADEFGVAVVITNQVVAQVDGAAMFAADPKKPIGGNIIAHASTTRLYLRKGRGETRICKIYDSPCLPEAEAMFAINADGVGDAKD
Test: pull-down

- binding result: binds
B1: 2XMBP-BRC4-DBD (domain or fragment, human)
chain: PVGTGNQLVTFQGQPERDEKIKEPTLLGFHTASGKKVKIAKESLDKVKNLFDEKEQGTSEITSFSHQWAKTLKYREACKDLELACETIEITAAPGGGSPYLSQFQQDKQQLVLGTKVSLVENIHVLGKEQASPKNVKMEIGKTETFSDVPVKTNIEVCSTYSKDSENYFETEAVEIAKAFMEDDELTDSKLPSHATHSLFTCPENEEMVLSNSRIGKRRGEPLILVGEPSIKRNLLNEFDRIIENQEKSLKASKSTPDGTIKDRRLFMHHVSLEPITCVPFRTTKERQEIQNPNFTAPGQEFLSKSHLYEHLTLEKSSSNLAVSGHPFYQVSATRNEKMRHLITTGRPTKVFVPPFKTKSHFHRVEQCVRNINLEENRQKQNIDGHGSDDSKNKINDNEIHQFNKNNSNQAVAVTFTKCEEEPLDLITSLQNARDIQDMRIKKKQRQRVFPQPGSLYLAKTSTLPRISLKAAVGGQVPSACSHKQLYTYGVSKHCIKINSKNAESFQFHTEDYFGKESLWTGKGIQLADGGWLIPSNDGKAGKEEFYRALCDTPGVDPKLISRIWVYNHYRWIIWKLAAMECAFPKEFANRCLSPERVLLQLKYRYDTEIDRSRRSAIKKIMERDDTAAKTLVLCVSDIISLSANISETSSNKTSSADTQKVAIIELTDGWYAVKAQLDPPLLAVLKNGRLTVGQKIILHGAELVGSPDACTPLEAPESLMLKISANSTRPARWYTKLGFFPDPRPFPLPLSSLFSDGGNVGCVDVIIQRAYPIQWMEKTSSGLYIFRNEREEEKEAAKYVEAQQKRLEALFTKIQEEFEEHEENTTKPYLPSRALTRQQVRALQDGAELYEAVKNAADPAYLEGYFSEEQLRALNNHRQMLNDKKQAQIQLEIRKAMESAEQKEQGLSRDVTTVWKLRIVSYSKKEKDSVILSIWRPSSDLYSLLTEGKRYRIYHLATSKSKSKSERANIQLAATKKTQYQQLPVSDEILFQIYQPREPLHFSKFLDPDFQPSCSEVDLIGFVVSVVKKTGLAPFVYLSDECYNLLAIKFWIDLNEDIIKPHMLIAASNLQWRPESKSGLLTLFAGDFSVFSASPKEGHFQETFNKMKNTVENIDILCNEAENKLMHILHANDPKWSTPTKDCTSGPYTAQIIPGTGNKLLMSSPNCEIYYQSPLSLCMAKRKSVSTPVSAQMTSKSCKGEKEIDDQKNCKKRRALDFLSRLPLPPPVSPICTFVSPAAQKAFQPPRSCGTKYETPIKKKELNSPQMTPFKKFNEISLLESNSIADEELALINTQALLSGSTGEKQFISVSESTRTAPTSSEDYLRLKRRCTTSLIKEQESSQASTEECEKNKQDTITTKKYI
